Data: patent publication US20180155451A1 (published 2018)

T1: FcgRIIb (human, UniProt P31994 43-217)
T1 construct: extracellular domain; Soluble extracellular domain with C-terminal His tag; also called FcγRIIb; CD32B; not shown: His tag attached to the C terminus
T1 sequence (looked up): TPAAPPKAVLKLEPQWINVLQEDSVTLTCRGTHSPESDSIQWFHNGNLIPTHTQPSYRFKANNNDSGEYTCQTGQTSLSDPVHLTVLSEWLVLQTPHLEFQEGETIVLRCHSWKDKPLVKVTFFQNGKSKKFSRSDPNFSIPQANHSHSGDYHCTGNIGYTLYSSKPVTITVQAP

T2: FcgRIIaR (human, UniProt P12318 34-217)
T2 construct: extracellular domain; Soluble extracellular domain with C-terminal His tag; also called FcγRIIa R; FcγRIIa type R; not shown: His tag attached to the C terminus
T2 sequence (looked up): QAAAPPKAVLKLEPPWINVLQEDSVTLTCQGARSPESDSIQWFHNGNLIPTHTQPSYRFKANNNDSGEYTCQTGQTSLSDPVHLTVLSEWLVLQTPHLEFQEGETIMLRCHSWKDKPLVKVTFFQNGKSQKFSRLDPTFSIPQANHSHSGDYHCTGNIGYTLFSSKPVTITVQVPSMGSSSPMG

T3: FcgRIIaH (human, UniProt P12318 34-217)
T3 construct: extracellular domain; Soluble extracellular domain with C-terminal His tag; also called FcγRIIa H; FcγRIIa type H; not shown: His tag attached to the C terminus
T3 sequence (looked up): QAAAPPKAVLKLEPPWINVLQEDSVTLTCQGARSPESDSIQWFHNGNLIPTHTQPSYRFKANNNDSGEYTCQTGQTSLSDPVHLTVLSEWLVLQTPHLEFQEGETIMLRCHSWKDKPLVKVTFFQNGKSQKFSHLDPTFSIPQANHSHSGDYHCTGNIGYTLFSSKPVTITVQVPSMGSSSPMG


Legend:
[1] = target: T1, FcgRIIb; assay: SPR (Biacore); KD of H240-Kn120/H240-Hl068/L73-k0 divided by KD of this antibody
Method: (§1) Analysis of interaction between obj ective antibody and the FcγR was carried out using Biacore T100 (GE Healthcare), Biacore T200, Biacore A100, and Biacore 4000.

[2] = target: T4, FcgRIa (human, UniProt P12314 16-292); assay: as above
T4 construct: extracellular domain; Soluble extracellular domain with C-terminal His tag, expressed in FreeStyle293 cells; also called FcγRIa; FcγRI; not shown: His tag attached to the C terminus
T4 sequence (P12314 16-292): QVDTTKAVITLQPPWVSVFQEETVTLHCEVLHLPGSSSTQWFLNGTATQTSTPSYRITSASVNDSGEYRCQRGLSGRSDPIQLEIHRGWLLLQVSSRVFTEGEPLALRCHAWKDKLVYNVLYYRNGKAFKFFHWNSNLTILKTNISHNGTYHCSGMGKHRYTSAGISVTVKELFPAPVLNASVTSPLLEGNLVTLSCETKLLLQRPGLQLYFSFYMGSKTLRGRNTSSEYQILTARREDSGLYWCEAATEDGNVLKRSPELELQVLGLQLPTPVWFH
Method: as §1

[3] = target: T2, FcgRIIaR; assay: as above
Method: as §1

[4] = target: T5, FcgRIIIaF (human, UniProt P08637 17-208); assay: as above
T5 construct: extracellular domain; Soluble extracellular domain with C-terminal His tag; polymorphic site made after J. Clin. Invest; also called FcγRIIIa F; not shown: His tag attached to the C terminus
T5 sequence (P08637 17-208): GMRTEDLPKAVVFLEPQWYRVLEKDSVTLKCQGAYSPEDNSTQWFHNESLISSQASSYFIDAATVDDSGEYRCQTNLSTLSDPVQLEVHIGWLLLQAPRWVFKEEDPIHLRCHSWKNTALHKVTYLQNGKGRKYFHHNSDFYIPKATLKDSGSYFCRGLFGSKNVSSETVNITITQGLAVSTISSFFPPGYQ
Method: as §1

[5] = target: T6, FcgRIIIaV (human, UniProt P08637 17-208); assay: as above
T6 construct: extracellular domain; Soluble extracellular domain with C-terminal His tag; polymorphic site made after J. Clin. Invest; also called FcγRIIIa V; not shown: His tag attached to the C terminus
T6 sequence (P08637 17-208 F176V limits assumed): as the sequence (P08637 17-208) above, with F160V counted along it
Method: as §1

[6] = target: T3, FcgRIIaH; assay: as above
Method: as §1

[7] = target: T1, FcgRIIb; assay: SPR (Biacore), antibody captured, FcgR as analyte
Method: (§2) Analysis of interaction between obj ective antibody and the FcγR was carried out using Biacore T100 (GE Healthcare), Biacore T200, Biacore A100, and Biacore 4000. HBS-EP+ (GE Healthcare) was used as the running buffer, and the measurement temperature was set to 25° C. Chips produced by immobilizing the antigen peptide by the amine coupling method to a Series S sensor Chip CM5 (GE Healthcare), chips produced by allowing preliminarily biotinylated antigen peptides to interact with and immobilize onto a Series S Sensor Chip SA (certified) (GE Healthcare), chips produced by immobilizing Protein L (ACTIGEN, BioVision) to Series S Sencor Chip CM5 (GE Healthcare), or chips produced by immobilizing Protein A/G (Thermo Scientific) to Series S Sencor Chip CM5 (GE Healthcare) were used. Antibodies of interest were captured onto these chips, and allowed to interact to each FcγR diluted with running buffer. To regenerate and repeatedly use the chip, the antibodies captured onto the chip were washed off by reacting 10 mM glycine-HCl, pH 1.5.

[8] = target: T4, FcgRIa; assay: SPR (Biacore), antibody captured, FcgR as analyte
Method: as §2

[9] = target: T2, FcgRIIaR; assay: SPR (Biacore), antibody captured, FcgR as analyte
Method: as §2

[10] = target: T5, FcgRIIIaF; assay: SPR (Biacore), antibody captured, FcgR as analyte
Method: as §2

[11] = target: T6, FcgRIIIaV; assay: SPR (Biacore), antibody captured, FcgR as analyte
Method: as §2

[12] = target: T3, FcgRIIaH; assay: SPR (Biacore), antibody captured, FcgR as analyte
Method: as §2

Relative KD [1]	Relative KD [2]	Relative KD [3]	Relative KD [4]	Relative KD [5]	Relative KD [6]	Kd [7]	Kd [8]	Kd [9]	Kd [10]	Kd [11]	Kd [12]	Binder
1	1	1	1	1	1	150 nM	0.16 nM	20 nM	2.2 nM	0.36 nM	41 nM	H240-Kn120/H240-Hl068/L73-k0 (antibody, human IgG1, kappa, Heterodimerized anti-epiregulin IgG1 antibody (knobs-into-holes); also called H240-Kn120/H240-HI068/L73-k0) heavy 1: QDQLVQSGAEVKKPGASVKVSCKASGFNIKDTYIQWVRQAPGQGLEWMGRIDPLRKQTKYREKFEGRVTITADTSTNTAYMELSSLRSEDTAVYYCVRSGREFDYWGQGTLVTVSSASTKGPSVFPLAPSSKSTSGGTAALGCLVKDYFPEPVTVSWNSGALTSGVHTFPAVLQSSGLYSLSSVVTVPSSSLGTQTYICNVNHKPSNTKVDKKVEPKSCDKTHTCPPCPAPEYYWGPMVFLFPPKPKDTLMISRTPEVTCVVVDVSDEDPEVKFNWYVDGVEVHNAKTKPREEQYNATYRVVSVLTVLHQDWLNGKEYKCKVSNKDLPAPIEKTISKAKGQPREPQVCTLPPSRDELTKNQVSLWCLVKGFYPSDIAVEWESNGQPENNYKTTPPVLDSDGSFFLYSKLTVDKSRWQQGNVFSCSVMHEALHNHYTQKSLSLSP heavy 2: QDQLVQSGAEVKKPGASVKVSCKASGFNIKDTYIQWVRQAPGQGLEWMGRIDPLRKQTKYREKFEGRVTITADTSTNTAYMELSSLRSEDTAVYYCVRSGREFDYWGQGTLVTVSSASTKGPSVFPLAPSSKSTSGGTAALGCLVKDYFPEPVTVSWNSGALTSGVHTFPAVLQSSGLYSLSSVVTVPSSSLGTQTYICNVNHKPSNTKVDKKVEPKSCDKTHTCPPCPAPELLGGPSVFLFPPKPKDTLMISRTPEVTCVVVDVSHEEPEVKFNWYVDGVEVHNAKTKPREEQYNSTYRVVSVLTVLHQDWLNGKEYKCKVSNDALPKPIEETISKAKGQPREPQVYTLPPSRCELTKNQVSLSCAVKGFYPSDIAVEWESNGQPENNYKTTPPVLDSDGSFFLVSKLTVDKSRWQQGNVFSCSVMHEALHNHYTQKSLSLSP light: DIQMTQSPSSLSASVGDRVTITCRASQDIHKYIAWYQQKPGQAPRLLIQYTSTLQPGVPSRFSGSGSGTDYTFTISSLQPEDIATYYCLQYEQLRTFGGGTKVEIKRTVAAPSVFIFPPSDEQLKSGTASVVCLLNNFYPREAKVQWKVDNALQSGNSQESVTEQDSKDSTYSLSSTLTLSKADYEKHKVYACEVTHQGLSSPVTKSFNRGEC
1.5	0.4	1	0.7	0.6	1.2	98 nM	0.39 nM	20 nM	3 nM	0.57 nM	35 nM	H240-Kn120/H240-Hl150/L73-k0 (antibody, human IgG1, kappa, Heterodimerized anti-epiregulin IgG1 antibody; I332T introduced into H240-Hl068; also called H240-Kn120/H240-HI150/L73-k0) heavy 1: QDQLVQSGAEVKKPGASVKVSCKASGFNIKDTYIQWVRQAPGQGLEWMGRIDPLRKQTKYREKFEGRVTITADTSTNTAYMELSSLRSEDTAVYYCVRSGREFDYWGQGTLVTVSSASTKGPSVFPLAPSSKSTSGGTAALGCLVKDYFPEPVTVSWNSGALTSGVHTFPAVLQSSGLYSLSSVVTVPSSSLGTQTYICNVNHKPSNTKVDKKVEPKSCDKTHTCPPCPAPEYYWGPMVFLFPPKPKDTLMISRTPEVTCVVVDVSDEDPEVKFNWYVDGVEVHNAKTKPREEQYNATYRVVSVLTVLHQDWLNGKEYKCKVSNKDLPAPIEKTISKAKGQPREPQVCTLPPSRDELTKNQVSLWCLVKGFYPSDIAVEWESNGQPENNYKTTPPVLDSDGSFFLYSKLTVDKSRWQQGNVFSCSVMHEALHNHYTQKSLSLSP heavy 2: QDQLVQSGAEVKKPGASVKVSCKASGFNIKDTYIQWVRQAPGQGLEWMGRIDPLRKQTKYREKFEGRVTITADTSTNTAYMELSSLRSEDTAVYYCVRSGREFDYWGQGTLVTVSSASTKGPSVFPLAPSSKSTSGGTAALGCLVKDYFPEPVTVSWNSGALTSGVHTFPAVLQSSGLYSLSSVVTVPSSSLGTQTYICNVNHKPSNTKVDKKVEPKSCDKTHTCPPCPAPELLGGPSVFLFPPKPKDTLMISRTPEVTCVVVDVSHEEPEVKFNWYVDGVEVHNAKTKPREEQYNSTYRVVSVLTVLHQDWLNGKEYKCKVSNDALPKPTEETISKAKGQPREPQVYTLPPSRCELTKNQVSLSCAVKGFYPSDIAVEWESNGQPENNYKTTPPVLDSDGSFFLVSKLTVDKSRWQQGNVFSCSVMHEALHNHYTQKSLSLSP light: DIQMTQSPSSLSASVGDRVTITCRASQDIHKYIAWYQQKPGQAPRLLIQYTSTLQPGVPSRFSGSGSGTDYTFTISSLQPEDIATYYCLQYEQLRTFGGGTKVEIKRTVAAPSVFIFPPSDEQLKSGTASVVCLLNNFYPREAKVQWKVDNALQSGNSQESVTEQDSKDSTYSLSSTLTLSKADYEKHKVYACEVTHQGLSSPVTKSFNRGEC
2.2	0.8	2.3	0.6	0.4	2.3	67 nM	0.19 nM	8.6 nM	3.9 nM	0.93 nM	18 nM	H240-Kn120/H240-Hl170/L73-k0 (antibody, human IgG1, kappa, Heterodimerized anti-epiregulin IgG1 antibody; L328A introduced into H240-Hl068; also called H240-Kn120/H240-HI170/L73-k0) heavy 1: QDQLVQSGAEVKKPGASVKVSCKASGFNIKDTYIQWVRQAPGQGLEWMGRIDPLRKQTKYREKFEGRVTITADTSTNTAYMELSSLRSEDTAVYYCVRSGREFDYWGQGTLVTVSSASTKGPSVFPLAPSSKSTSGGTAALGCLVKDYFPEPVTVSWNSGALTSGVHTFPAVLQSSGLYSLSSVVTVPSSSLGTQTYICNVNHKPSNTKVDKKVEPKSCDKTHTCPPCPAPEYYWGPMVFLFPPKPKDTLMISRTPEVTCVVVDVSDEDPEVKFNWYVDGVEVHNAKTKPREEQYNATYRVVSVLTVLHQDWLNGKEYKCKVSNKDLPAPIEKTISKAKGQPREPQVCTLPPSRDELTKNQVSLWCLVKGFYPSDIAVEWESNGQPENNYKTTPPVLDSDGSFFLYSKLTVDKSRWQQGNVFSCSVMHEALHNHYTQKSLSLSP heavy 2: QDQLVQSGAEVKKPGASVKVSCKASGFNIKDTYIQWVRQAPGQGLEWMGRIDPLRKQTKYREKFEGRVTITADTSTNTAYMELSSLRSEDTAVYYCVRSGREFDYWGQGTLVTVSSASTKGPSVFPLAPSSKSTSGGTAALGCLVKDYFPEPVTVSWNSGALTSGVHTFPAVLQSSGLYSLSSVVTVPSSSLGTQTYICNVNHKPSNTKVDKKVEPKSCDKTHTCPPCPAPELLGGPSVFLFPPKPKDTLMISRTPEVTCVVVDVSHEEPEVKFNWYVDGVEVHNAKTKPREEQYNSTYRVVSVLTVLHQDWLNGKEYKCKVSNDAAPKPIEETISKAKGQPREPQVYTLPPSRCELTKNQVSLSCAVKGFYPSDIAVEWESNGQPENNYKTTPPVLDSDGSFFLVSKLTVDKSRWQQGNVFSCSVMHEALHNHYTQKSLSLSP light: DIQMTQSPSSLSASVGDRVTITCRASQDIHKYIAWYQQKPGQAPRLLIQYTSTLQPGVPSRFSGSGSGTDYTFTISSLQPEDIATYYCLQYEQLRTFGGGTKVEIKRTVAAPSVFIFPPSDEQLKSGTASVVCLLNNFYPREAKVQWKVDNALQSGNSQESVTEQDSKDSTYSLSSTLTLSKADYEKHKVYACEVTHQGLSSPVTKSFNRGEC
